This is an account of results in patent publication US20260022175A1 (Chugai, published 2026).

The target in assay [1] is T1, human CTLA4 (human).
T1 construct: also called hCTLA4; hCTLA4-His-BAP
The assay can be described thus: SPR Biacore T200, 37C, antibody captured, ATP 1 uM. (Surface plasmon resonance follows binding to a sensor surface in real time, without labels.)
Procedure: (§1) Biacore T200 was used to measure the binding of the generated antibodies to human CTLA4. 20 mM ACES (pH 7.4), 150 mM NaCl, 2 mM MgCl₂, 0.05% Tween 20 with ATP added to the desired concentration was used as the running buffer, and the assay was performed at 37° C. First, Protein G (CALBIOCHEM) was immobilized onto a Series S Sensor Chip CM3 (GE Healthcare), and the antibodies were captured by interacting an antibody solution prepared in an ATP-free running buffer with the chip. Next, by interacting with a human CTLA4 solution prepared in a running buffer containing ATP to the desired concentration, or a human CTLA4 solution prepared in a running buffer containing no ATP, the binding ability of the antibody to human CTLA4 in the presence or absence of ATP was evaluated. Chips were regenerated with 25 mM NaOH and 10 mM Glycine-HCl (pH 1.5), and assay was performed by repeatedly capturing antibodies. The dissociation constant of each antibody for CTLA4 was calculated using Biacore T200 Evaluation Software 2.0. Specifically, the binding rate constant ka (L/mol/s) and the dissociation rate constant kd (1/s) were calculated by global fitting of the sensorgrams obtained by the measurement, using a 1:1 Langmuir binding model. The dissociation constant KD (mol/L) was calculated from those values. Alternatively, the dissociation constant KD (mol/L) was calculated by the steady state model. In addition, the binding amount of CTLA4 per unit amount of antibody was calculated by correcting the amount of CTLA4 bound as calculated from the sensorgram obtained by the assay with the amount of antibody captured onto the chip surface.
(§2) Next, the binding ability of some variants to mouse CTLA4 and cynomolgus monkey CTLA4 was evaluated.

Assay [2] addresses T2, cynomolgus monkey CTLA4 (CyCTLA4-His-BAP) (cynomolgus monkey). The assay can be described thus: SPR Biacore T200, 37C, antibody captured, ATP 1 uM.
Procedure: as §1, §2
Assay [3] deals with T3, mouse CTLA4 extracellular region linked with a His-tag (mCTLA4-His) (mouse, UniProt P09793 36-161). The assay can be described thus: SPR Biacore T200, 37C, antibody captured, ATP 1 uM.
Procedure: as §1, §2
For assay [4], the target named is T1, human CTLA4. The assay can be described thus: SPR Biacore T200, 37C, antibody captured, no ATP; no ATP.
Procedure: Biacore T200 was used to measure the binding of the generated antibodies to human CTLA4. 20 mM ACES (pH 7.4), 150 mM NaCl, 2 mM MgCl₂, 0.05% Tween 20 with ATP added to the desired concentration was used as the running buffer, and the assay was performed at 37° C. First, Protein G (CALBIOCHEM) was immobilized onto a Series S Sensor Chip CM3 (GE Healthcare), and the antibodies were captured by interacting an antibody solution prepared in an ATP-free running buffer with the chip. Next, by interacting with a human CTLA4 solution prepared in a running buffer containing ATP to the desired concentration, or a human CTLA4 solution prepared in a running buffer containing no ATP, the binding ability of the antibody to human CTLA4 in the presence or absence of ATP was evaluated. Chips were regenerated with 25 mM NaOH and 10 mM Glycine-HCl (pH 1.5), and assay was performed by repeatedly capturing antibodies. The dissociation constant of each antibody for CTLA4 was calculated using Biacore T200 Evaluation Software 2.0. Specifically, the binding rate constant ka (L/mol/s) and the dissociation rate constant kd (1/s) were calculated by global fitting of the sensorgrams obtained by the measurement, using a 1:1 Langmuir binding model. The dissociation constant KD (mol/L) was calculated from those values. Alternatively, the dissociation constant KD (mol/L) was calculated by the steady state model. […]
Assay [5] deals with T1, human CTLA4. The assay can be described thus: SPR Biacore T200, 37C, antibody captured, ADP 10 uM.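 Further: antibodies held on a Protein G CM3 chip, human CTLA4 as analyte in ACES pH 7.4 buffer, rates from a global 1:1 Langmuir fit, Kd from rates or steady state.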
Assay [6] has as its target T1, human CTLA4. The assay can be described thus: SPR Biacore T200, 37C, antibody captured, ATP 100 uM.
Procedure: as §1, §2
Assay [7] concerns the target T2, cynomolgus monkey CTLA4 …. The description is as above.
Procedure: as §1, §2
Assay [8] concerns the target T3, mouse CTLA4 extracellular region linked …. The description is as above.
Procedure: as §1, §2
Assay [9] addresses T1, human CTLA4. The assay can be described thus: SPR Biacore T200, 37C, antibody captured, ATP 10 uM.
Procedure: as §1, §2
The target of assay [10] is T2, cynomolgus monkey CTLA4 …. The assay is described as above.
Procedure: as §1, §2
Assay [11] has as its target T3, mouse CTLA4 extracellular region linked …. Described as above.
Procedure: as §1, §2
For assay [12], the target named is T1, human CTLA4. The description is as above. The source holds these as a separate data set.
Procedure: as §1
For assay [13], the target named is T1, human CTLA4. The assay can be described thus: SPR Biacore T200, 37C, antibody captured, ATP 1 uM. The source holds these as a separate data set.
Procedure: as §1
In assay [14] the target is T1, human CTLA4. The assay can be described thus: SPR Biacore T200, 37C, antibody captured, AMP 10 uM.
Assay [15] concerns the target T1, human CTLA4. The assay can be described thus: SPR Biacore T200, 37C, antibody captured, ATP 10 uM. The source holds these as a separate data set.
Assay [16] has as its target T4, human FcRn (human, UniProt P55899 24-290; P61769 21-119).
T4 construct: Prepared by the method of WO 2010/107110; also called hFcRn
The assay can be described thus: SPR Biacore T200, captured Ab, pH 6.0, steady state.
Procedure: The interaction between the generated antibodies and human FcRn was analyzed by the following method using Biacore T200. 50 mM Na-Phosphate, 150 mM NaCl, 0.05% Tween20 (pH 6.0) was used as the running buffer, and the assay was performed at 25° C. For the sensor chip, Series S SA (GE Healthcare) chips onto which CaptureSelect Human Fab-lambda Kinetics Biotin Conjugate (Thermo Fisher Scientific) was immobilized were used. The antibodies of interest were captured onto these chips and FcRn diluted in the running buffer was allowed to interact with them. Chips were regenerated with 10 mM Glycine-HCl (pH 1.5) and 25 mM NaOH, and assay was performed by repeatedly capturing antibodies. The dissociation constant for FcRn of each antibody was calculated using the steady state model, using Biacore T200 Evaluation Software 2.0.

Assay [17] has as its target T5, human FcγRIIb extracellular domain with C-terminal His-tag (human, UniProt P31994 43-217).
T5 construct: extracellular domain; also called hFcγR IIb
T5 sequence (looked up): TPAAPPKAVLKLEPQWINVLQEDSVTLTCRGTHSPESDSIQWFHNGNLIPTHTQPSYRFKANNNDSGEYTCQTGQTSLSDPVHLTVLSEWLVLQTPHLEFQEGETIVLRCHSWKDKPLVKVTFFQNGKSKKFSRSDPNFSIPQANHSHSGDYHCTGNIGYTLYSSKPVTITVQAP
The assay can be described thus: SPR; FcγRIIb bound amount per unit captured Ab.
Procedure: (§3) The interaction between the generated antibodies and human FcγRs was analyzed by the following method using Biacore T200. 50 mM Na-Phosphate, 150 mM NaCl, 0.05% Tween20 (pH 7.4) was used as the running buffer, and the assay was performed at 25° C. For the sensor chips, Series S SA (GE Healthcare) chips onto which CaptureSelect Human Fab-lambda Kinetics Biotin Conjugate (Thermo Fisher Scientific) was immobilized were used. The antibodies of interest were captured onto these chips and each FcγR diluted in the running buffer was allowed to interact with them. Chips were regenerated with 10 mM Glycine-HCl (pH 1.5) and 25 mM NaOH, and assay was performed by repeatedly capturing antibodies. The dissociation constants KD (mol/L) for FcγRs of each antibody were calculated using Biacore T200 Evaluation Software 2.0, using the 1:1 Langmuir binding model for FcγRIa and FcγRIIIa and the steady state affinity model for FcγRIIa. For FcγRIIb, the binding amount of FcγRIIb per unit amount of antibody was calculated by correcting the binding amount of FcγRIIb obtained from the sensorgram obtained by the measurement with the amount of antibody captured onto the chip surface.

In assay [18] the target is T6, human FcγRIa extracellular domain with C-terminal His-tag (human, UniProt P12314 16-292).
T6 construct: extracellular domain; also called hFcγR Ia; hFcγRIa
T6 sequence (P12314 16-292): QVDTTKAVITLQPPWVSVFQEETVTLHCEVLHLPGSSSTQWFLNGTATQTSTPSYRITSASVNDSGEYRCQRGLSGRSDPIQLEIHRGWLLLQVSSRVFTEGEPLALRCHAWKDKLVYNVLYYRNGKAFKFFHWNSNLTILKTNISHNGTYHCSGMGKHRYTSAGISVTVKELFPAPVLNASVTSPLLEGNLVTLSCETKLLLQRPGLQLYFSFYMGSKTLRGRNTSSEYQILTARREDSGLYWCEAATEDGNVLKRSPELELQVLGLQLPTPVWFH
The assay can be described thus: SPR; KD of 04H1656-G1m/04L1610-lam1 divided by KD of variant.

The target of assay [19] is T4, human FcRn. The description is as above.
Assay [20] concerns the target T7, human FcγRIIa R allotype extracellular domain with C-terminal His-tag (human, UniProt P12318 34-217).
T7 construct: extracellular domain; also called hFcγR IIa R
T7 sequence (looked up): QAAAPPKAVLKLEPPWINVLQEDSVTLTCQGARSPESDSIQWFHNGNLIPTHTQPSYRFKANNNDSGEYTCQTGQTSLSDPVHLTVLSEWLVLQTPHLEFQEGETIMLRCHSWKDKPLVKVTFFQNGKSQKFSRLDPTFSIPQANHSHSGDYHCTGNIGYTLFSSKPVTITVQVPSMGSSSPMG
The description is as above.

The target of assay [21] is T8, human FcγRIIa H allotype extracellular domain with C-terminal His-tag (human, UniProt P12318 34-217).
T8 construct: extracellular domain; also called hFcγR IIa H
T8 sequence (looked up): T7 sequence (looked up) with R134H
The assay is described as above.

Assay [22] addresses T9, human FcγRIIIa V allotype extracellular domain with C-terminal His-tag (human, UniProt P08637 17-208).
T9 construct: extracellular domain; also called hFcγR IIIa V
The description is as above.

The target in assay [23] is T10, human FcγRIIIa F allotype extracellular domain with C-terminal His-tag (human, UniProt P08637 17-208).
T10 construct: extracellular domain; also called hFcγR IIIa F
T10 sequence (P08637 17-208): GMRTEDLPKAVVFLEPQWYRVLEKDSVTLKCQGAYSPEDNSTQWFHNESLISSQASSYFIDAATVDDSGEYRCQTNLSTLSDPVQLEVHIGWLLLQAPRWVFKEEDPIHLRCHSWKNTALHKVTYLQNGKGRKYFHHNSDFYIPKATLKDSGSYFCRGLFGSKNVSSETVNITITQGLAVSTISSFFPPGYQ
Described as above.

Assay [24] has as its target T6, human FcγRIa extracellular domain with …. The assay can be described thus: SPR Biacore T200, captured Ab, pH 7.4.
Procedure: as §3
Assay [25] addresses T7, human FcγRIIa R allotype extracellular …. The assay can be described thus: SPR Biacore T200, captured Ab, pH 7.4.
Procedure: as §3
Assay [26] addresses T8, human FcγRIIa H allotype extracellular …. The assay can be described thus: SPR Biacore T200, captured Ab, pH 7.4.
Procedure: as §3
In assay [27] the target is T10, human FcγRIIIa F allotype extracellular …. The assay can be described thus: SPR Biacore T200, captured Ab, pH 7.4.
Procedure: as §3
Assay [28] has as its target T5, human FcγRIIb extracellular domain with …. The assay can be described thus: SPR; binding amount divided by that of 04H1656-G1m/04L1610-lam1.
Assay [29] concerns the target T9, human FcγRIIIa V allotype extracellular …. The assay can be described thus: SPR Biacore T200, captured Ab, pH 7.4, steady state model.
Procedure: as §3
For assay [30], the target named is T6, human FcγRIa extracellular domain with …. The assay can be described thus: SPR; KD of 04H1389-G1m/04L1615-k0MT divided by KD of variant.
In assay [31] the target is T4, human FcRn. The description is as above.
The target of assay [32] is T7, human FcγRIIa R allotype extracellular …. Described as above.
In assay [33] the target is T8, human FcγRIIa H allotype extracellular …. The assay is described as above.
Assay [34] has as its target T9, human FcγRIIIa V allotype extracellular …. The assay is described as above.
Assay [35] shares this target. The assay can be described thus: SPR Biacore T200, Ab captured via Fab-kappa, pH 7.4, 25C, steady state model.
Procedure: (§4) The interaction between the generated antibodies and human FcγRs was analyzed using Biacore T200. 50 mM Na-Phosphate, 150 mM NaCl, 0.05% Tween20 (pH 7.4) was used as the running buffer, and the assay was performed at 25° C. For the sensor chip, Series S SA (GE Healthcare) chips onto which CaptureSelect Human Fab-kappa Kinetics Biotin Conjugate (Thermo Fisher Scientific) was immobilized were used. The antibodies of interest were captured onto these chips and each FcγR diluted in the running buffer was allowed to interact with them. Chips were regenerated with 10 mM Glycine-HCl (pH 1.5) and 25 mM NaOH, and assay was performed by repeatedly capturing antibodies. The dissociation constants KD (mol/L) for FcγRs of each antibody were calculated using Biacore T200 Evaluation Software 2.0, and using the 1:1 Langmuir binding model for FcγRIa and FcγRIIIa and the steady state affinity model for FcγRIIa. For FcγRIIb, the binding amount of FcγRIIb per unit amount of antibody was calculated by correcting the binding amount of FcγRIIb obtained from the sensorgram obtained by the measurement with the amount of antibody captured onto the chip surface.
The target of assay [36] is T4, human FcRn. The assay can be described thus: SPR Biacore T200, Ab captured via Fab-kappa, pH 6.0, steady state.
Assay [37] concerns the target T6, human FcγRIa extracellular domain with …. The assay can be described thus: SPR Biacore T200, Ab captured via Fab-kappa, pH 7.4, 25C.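 Further: each FcγR flowed as analyte over the captured antibodies, KD derived by 1:1 Langmuir or steady-state affinity fitting depending on the receptor.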
Procedure: as §4
Assay [38] deals with T7, human FcγRIIa R allotype extracellular …. Described as above.
Procedure: as §4
The target in assay [39] is T8, human FcγRIIa H allotype extracellular …. The description is as above.
Procedure: as §4
In assay [40] the target is T5, human FcγRIIb extracellular domain with …. The assay can be described thus: SPR; binding amount divided by that of 04H1389-G1m/04L1615-k0MT.
The target is the same in assay [41]. The assay can be described thus: SPR; FcγRIIb bound amount per unit captured Ab. The source holds these as a separate data set.

Substitutions are numbered along the chain they refer to. Where two headings read alike, the source gives them in different places.

T9 sequence (P08637 17-208 F176V): as the sequence (P08637 17-208) above, with F160V counted along it
T2 sequence (chain, as listed by the source limits assumed): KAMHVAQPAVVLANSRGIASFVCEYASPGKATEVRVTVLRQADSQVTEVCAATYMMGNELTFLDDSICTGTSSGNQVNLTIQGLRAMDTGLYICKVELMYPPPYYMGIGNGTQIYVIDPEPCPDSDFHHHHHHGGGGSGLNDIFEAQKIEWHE
T1 sequence (chain, as listed by the source limits assumed): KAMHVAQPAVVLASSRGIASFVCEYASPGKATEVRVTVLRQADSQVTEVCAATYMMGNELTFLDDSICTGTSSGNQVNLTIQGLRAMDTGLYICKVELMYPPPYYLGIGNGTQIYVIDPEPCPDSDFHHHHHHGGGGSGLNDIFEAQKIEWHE
T4 sequence (P55899 24-290 limits assumed, chain 1 of 2): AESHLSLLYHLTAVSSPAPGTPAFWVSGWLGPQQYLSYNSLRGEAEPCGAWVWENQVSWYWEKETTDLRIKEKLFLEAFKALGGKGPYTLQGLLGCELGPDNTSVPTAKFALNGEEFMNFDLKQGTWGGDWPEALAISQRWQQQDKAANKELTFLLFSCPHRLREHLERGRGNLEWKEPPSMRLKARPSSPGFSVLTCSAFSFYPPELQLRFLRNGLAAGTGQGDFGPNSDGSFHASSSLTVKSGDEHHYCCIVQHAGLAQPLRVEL
T4 sequence (P61769 21-119 limits assumed, chain 2 of 2): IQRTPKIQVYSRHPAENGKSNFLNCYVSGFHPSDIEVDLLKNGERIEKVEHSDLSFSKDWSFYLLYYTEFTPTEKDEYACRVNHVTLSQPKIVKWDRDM

B1: 04H1654-G1m/04L1610-lam1 (antibody, human IgG1, lambda)
heavy: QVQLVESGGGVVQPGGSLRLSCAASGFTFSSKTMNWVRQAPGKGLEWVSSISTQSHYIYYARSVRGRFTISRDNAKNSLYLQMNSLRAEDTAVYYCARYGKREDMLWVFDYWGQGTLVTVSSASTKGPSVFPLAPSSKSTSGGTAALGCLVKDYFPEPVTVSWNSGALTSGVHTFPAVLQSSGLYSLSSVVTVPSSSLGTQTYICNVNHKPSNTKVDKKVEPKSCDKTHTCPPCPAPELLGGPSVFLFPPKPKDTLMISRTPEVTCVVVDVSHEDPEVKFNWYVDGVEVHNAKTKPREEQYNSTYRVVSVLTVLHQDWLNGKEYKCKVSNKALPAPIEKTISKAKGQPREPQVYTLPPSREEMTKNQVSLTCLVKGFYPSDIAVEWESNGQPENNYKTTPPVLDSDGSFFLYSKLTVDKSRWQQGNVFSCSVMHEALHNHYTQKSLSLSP
light: QSALTQPPSASGSPGQSVTISCEGPSTGVGDYNWVHWYQQHPGKAPKLMIYFTSKKPSGVPDRFSGSKSGNTASLTVSGLQAEDEADYYCQTYAAPLGPMFGGGTKLTVLGQPKAAPSVTLFPPSSEELQANKATLVCLISDFYPGAVTVAWKADSSPVKAGVETTTPSKQSNNKYAASSYLSLTPEQWKSHRSYSCQVTHEGSTVEKTVAPTECS
One may read the Kd as the free concentration of one partner at which half of the binding sites on the other are occupied at equilibrium, for simple one-to-one binding. The term koff denotes the rate constant with which the complex falls apart. The kon is the second-order rate constant of association. B1: the Kd in assay [1] came out at 110 nM; in [2] it was 180 nM; in assay [3], 180 nM; in [4], 5300 nM; in assay [5], 32 nM; in assay [6] it was 4.4 nM. Moreover, the dissociation constant Kd stood at 8.1 nM in assay [7]; 10 nM in assay [8]; 15 nM in assay [9]; 28 nM in [10]; 27 nM in assay [11]; 19 nM in assay [12]. The equilibrium dissociation constant (Kd) in assay [13] amounted to 120 nM; in [14], 100 nM; in assay [15], 19 nM. The koff amounted to 0.0028 s⁻¹ in assay [5], 0.0089 s⁻¹ in assay [14] and 0.0014 s⁻¹ in assay [15]. Besides, the values for the kon in assay [5], in assay [14] and in assay [15] were 88000 M⁻¹ s⁻¹, 89000 M⁻¹ s⁻¹ and 71000 M⁻¹ s⁻¹, respectively.

B2: 04H1656-G1m/04L1610-lam1 (antibody, human IgG1, lambda)
heavy: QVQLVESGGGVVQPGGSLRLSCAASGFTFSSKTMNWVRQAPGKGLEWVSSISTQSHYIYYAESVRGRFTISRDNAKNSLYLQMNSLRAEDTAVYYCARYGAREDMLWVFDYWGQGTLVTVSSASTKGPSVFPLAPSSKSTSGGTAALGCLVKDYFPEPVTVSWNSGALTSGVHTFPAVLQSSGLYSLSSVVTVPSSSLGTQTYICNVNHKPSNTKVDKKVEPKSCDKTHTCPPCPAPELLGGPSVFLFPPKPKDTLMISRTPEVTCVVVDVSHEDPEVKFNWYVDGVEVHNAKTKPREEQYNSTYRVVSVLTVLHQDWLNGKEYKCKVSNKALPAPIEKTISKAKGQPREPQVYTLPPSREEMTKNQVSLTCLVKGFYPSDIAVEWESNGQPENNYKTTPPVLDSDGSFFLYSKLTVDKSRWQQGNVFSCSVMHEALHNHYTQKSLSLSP
light: B1 light
As for B2, the dissociation constant Kd is 1700 nM in assay [16]; 0.092 nM in [24]; 1600 nM in assay [25]; 1300 nM in assay [26]; 1000 nM in [27]; 970 nM in assay [29]. The molecule also came in with a Binding amount in assay [17] of 0.008. For the same molecule, the “Relative value to KD between G1m and hFcγRs” value in [18], in [20], in [21], in assay [22] and in [23] was 1 throughout. Besides, the “Relative value to KD between G1m and hFcRn” value in assay [19] was determined as 1. For the same molecule, the Relative binding amount in assay [28] was determined as 1.

B3: 04H1389-G1m/04L1615-k0MT (antibody, human IgG1, kappa)
heavy: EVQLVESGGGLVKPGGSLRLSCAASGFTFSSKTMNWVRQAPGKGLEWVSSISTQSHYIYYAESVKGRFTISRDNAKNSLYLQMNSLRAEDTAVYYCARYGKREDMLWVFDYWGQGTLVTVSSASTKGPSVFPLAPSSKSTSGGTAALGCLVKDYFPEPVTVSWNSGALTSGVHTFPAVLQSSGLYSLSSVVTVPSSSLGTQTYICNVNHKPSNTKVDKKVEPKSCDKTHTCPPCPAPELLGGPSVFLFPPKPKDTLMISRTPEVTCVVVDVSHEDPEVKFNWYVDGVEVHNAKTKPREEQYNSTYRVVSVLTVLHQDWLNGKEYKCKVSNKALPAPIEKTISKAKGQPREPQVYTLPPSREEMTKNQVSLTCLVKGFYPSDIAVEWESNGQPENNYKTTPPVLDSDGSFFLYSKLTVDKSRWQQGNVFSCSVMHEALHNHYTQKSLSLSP
light: DIVMTQSPLSLPVTPGEPASISCQGPSTGVGDYNYVHWYQQKPGQAPRLLIYFTSKKPSGVPDRFSGSGSGTDFTLKISRVEAEDVGVYYCQTYAAPLGPMFGQGTKLEIKRTVAAPSVFIFPPSDEQLKSGTASVVCLLNNFYPREAKVQWKVDNALQSGNSQESVTEQDSKDSTYSLSSTLTLSKADYEKHKVYACEVTHQGLSSPVTKSFNRGEC
notes: Homodimer used for comparison; also called 04H1389-G1m/04L16150k0MT
In the case of B3, the “Relative value to KD between G1m and hFcγRs” value in assay [30], in assay [32], in assay [33] and in [34] was 1 throughout. For the same molecule, in assay [31], the “Relative value to KD between G1m and hFcRn” value was 1. Besides, the Kd in assay [35] amounted to 910 nM; in assay [36] it was 1300 nM; in assay [37], 0.045 nM; in [38], 1500 nM; in assay [39], 1100 nM. In addition, in assay [40], the Relative binding amount was determined as 1. The molecule also yielded a Binding amount in [41] of 0.011.
